The target in test [1] is human ADAMTS13 (A Disintegrin And Metalloproteinase with a ThromboSpondin type 1 motif, member 13) (human) (UniProt Q76LX8). The test is described as follows: cell-based or functional assay.
For test [2] the target is unchanged. Nature of the test: sandwich ELISA: dilution series of coated antibody (10 to 0.02 µg/mL), constant 15% normal human plasma; half maximal binding by nonlinear regression. In general terms: In an ELISA, binding on a coated surface is turned into a signal by an enzyme label.

human ADAMTS13 (A Disintegrin And Metalloproteinase with a ThromboSpondin type 1 motif, member 13) (human), sequence (Q76LX8 75-1427): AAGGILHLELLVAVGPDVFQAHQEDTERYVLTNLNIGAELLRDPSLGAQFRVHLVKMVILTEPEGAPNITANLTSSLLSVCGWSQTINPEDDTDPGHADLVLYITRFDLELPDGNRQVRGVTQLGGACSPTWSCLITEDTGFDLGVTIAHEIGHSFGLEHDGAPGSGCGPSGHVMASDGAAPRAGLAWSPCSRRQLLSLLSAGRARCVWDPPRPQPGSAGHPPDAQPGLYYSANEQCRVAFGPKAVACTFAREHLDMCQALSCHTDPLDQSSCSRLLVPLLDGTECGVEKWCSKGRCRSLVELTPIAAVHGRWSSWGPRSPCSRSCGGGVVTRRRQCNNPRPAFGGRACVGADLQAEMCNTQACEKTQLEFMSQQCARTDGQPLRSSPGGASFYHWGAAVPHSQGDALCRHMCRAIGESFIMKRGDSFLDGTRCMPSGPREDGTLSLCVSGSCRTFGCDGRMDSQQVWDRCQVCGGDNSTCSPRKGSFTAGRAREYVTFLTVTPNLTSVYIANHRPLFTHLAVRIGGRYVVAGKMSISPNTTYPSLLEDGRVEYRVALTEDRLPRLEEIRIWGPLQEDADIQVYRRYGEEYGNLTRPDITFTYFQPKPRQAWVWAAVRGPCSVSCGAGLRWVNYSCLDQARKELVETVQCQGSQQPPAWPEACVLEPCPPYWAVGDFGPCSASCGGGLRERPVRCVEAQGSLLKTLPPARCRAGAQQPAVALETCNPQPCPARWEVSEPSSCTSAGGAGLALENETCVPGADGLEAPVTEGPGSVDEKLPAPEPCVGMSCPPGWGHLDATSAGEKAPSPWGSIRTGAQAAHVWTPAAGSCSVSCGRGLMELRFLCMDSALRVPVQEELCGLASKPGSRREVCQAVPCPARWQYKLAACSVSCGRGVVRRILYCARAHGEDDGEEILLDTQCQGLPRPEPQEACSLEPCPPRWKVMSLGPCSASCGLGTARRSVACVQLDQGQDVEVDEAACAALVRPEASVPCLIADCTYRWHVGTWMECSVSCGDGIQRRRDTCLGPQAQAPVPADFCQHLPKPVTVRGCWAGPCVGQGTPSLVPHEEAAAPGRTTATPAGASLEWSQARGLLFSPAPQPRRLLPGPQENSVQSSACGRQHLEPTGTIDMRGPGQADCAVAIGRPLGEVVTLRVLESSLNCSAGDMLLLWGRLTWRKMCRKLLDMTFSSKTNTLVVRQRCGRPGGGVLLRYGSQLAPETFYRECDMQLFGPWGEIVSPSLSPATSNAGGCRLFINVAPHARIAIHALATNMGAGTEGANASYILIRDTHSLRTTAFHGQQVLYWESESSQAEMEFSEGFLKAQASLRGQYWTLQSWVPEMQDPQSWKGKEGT

B1: monoclonal anti-ADAMTS13 antibody 17C7 (antibody, V domains shown)
VH: EVQLVESGGDLVKSGGSLKLSCAASGFIFSNYAMSWVRQTPEKRLEWGATITTGGFYTFYSDSVKGRFTISRDNAKNTLYLQMSSLRSEDTAMYYCARHRYDDYYALDYWGQGTSVTVSS
VL: ENVLTQSPAIMSTSPGEKVTMTCNVSSSVSYMRWFQQKSSTSPKLWIYDTSKLASGVPGRFSGSGSGHSYSLTISSMEADDVATYYCFQGNGYPLTFGAGTKLELK
modifications: Biotinylated when used as detector; the site is not stated and the letters cannot carry it.
B1 showed a half maximal inhibitory concentration (IC50) of ADAMTS13 activity in normal human plasma, FRETS-VWF73 assay in test [1] of 0.47 µg/mL. The molecule further returned a half-maximal binding concentration (EC50) of coated antibody in test [2] of 0.51 µg/mL.

Source of the values: patent US20200308303A1.
